Experiments:
[1] = test system: T1, library peptide Leu-Leu-Val-Ala-Ala-Ala (negative control)
T1 sequence: LLVAAA

[2] = test system: T2, TAS1 (Rh-based peptide/peptoid hybrid probe, Leu-Leu-Val-Tyr-Rh110-peptoid)
T2 sequence: LLVY

B1: 20S core particle (20S CP) of the proteasome, purified (enzyme, part only; not given: other 20S alpha and beta subunits)
chain: TTTLAFKFRHGVIVAADSRATAGAYIASQTVKKVIEINPYLLGTMAGGAADCSFWERLLARQCRIYELRNKERISVAAASKLLANMVYQYKGMGLSMGTMICGWDKRGPGLYYVDSEGNRISGATFSVGSGSVYAYGVMDRGYSYDLEVEQAYDLARRAIYQATYRDAYSGGAVNLYHVREDGWIRVSSDNVADLHEKYSGSTP
B1 was tested, and the “percent cleavage by LC/MS, 12 µM peptide with 9 nM 20S CP for one hour” value [1] was “less than 10% of the peptide cleaved” and the Rate of Hydrolysis (ΔRFU/min), probe at 30 µM with purified 20S CP [2] was 83.2 ΔRFU/min.
